According to paper PMC11081419, “Structural basis of chemokine recognition by the class A3 tick evasin EVA‐ACA1001” (Protein Science : A Publication of the Protein Society, 2024):

B1: EVA‐ACA1001 (untagged, for crystallization and cell assays) (natural protein)
chain: ENGEGTTQPDYDNSTDYYNYEDFKCTCPAPHLNNTNGTVMKPIGCYYTCNVTRCTAPDTYPCYNLTEHQAKNLTTSPTTLCAVGNCDHGICVPNGTKELCFKAPNLEE
B2: CCL16 (ligand, human, UniProt O15467 24-120, looked up)
chain: QPKVPEWVNTPSTCCLKYYEKVLPRRLVVGYRKALNCHLPAIIFVTKRNREVCTNPNDDWVQEYIKDPNLPLLPTRNLSTVKIITAKNGQPQLLNSQ
notes: CCL16, human CC chemokine; The E. coli preparation is described for the crystal; also called human chemokine CCL16; not shown: His6, N-terminal, cleaved; SUMO, N-terminal, cleaved
B3: CCL7 (ligand)
chain: not shown
notes: CCL7, human CC chemokine
B4: CCL18 (ligand, human, UniProt P55774 21-89, looked up)
chain: AQVGTNKELCCLVYTSWQIPQKFIVDYSETSPQCPKPGVILLTKRGRQICADPNKKWVQKYISDLKLNA
notes: CCL18, human CC chemokine
B5: CCL15 (ligand)
chain: QFTNDAETELMMSKLPLENPVVLNSFHFAADCCTSYISQSIPCSLMKSYFETSSECSKPGVIFLTKKGRQVCAKPSGPGVQDCMKKLKPYSI
B6: CCL11 (ligand)
chain: not shown
notes: CCL11, human CC chemokine
B7: CCL3 (ligand, human, UniProt P10147 24-92, looked up)
chain: SLAADTPTACCFSYTSRQIPQNFIADYFETSSQCSKPGVIFLTKRSRQVCADPSEEWVQKYVSDLELSA
notes: CCL3, human CC chemokine
B8: CCL1 (ligand, human, UniProt P22362 24-96, looked up)
chain: KSMQVPFSRCCFSFAEQEIPLRAILCYRNTSSICSNEGLIFKLKRGKEACALDTVGWVQRHRKMLRHCPSKRK
notes: CCL1, human CC chemokine
B9: CCL24 (ligand, human, UniProt O00175 27-119, looked up)
chain: VVIPSPCCMFFVSKRIPENRVVSYQLSSRSTCLKAGVIFTTKKGQQFCGDPKQEWVQRYMKNLDAKQKKASPRARAVAVKGPVQRYPGNQTTC
notes: CCL24, human CC chemokine
B10: CCL5 (ligand, human, UniProt P13501 24-91, looked up)
chain: SPYSSDTTPCCFAYIARPLPRAHIKEYFYTSGKCSNPAVVFVTRKNRQVCANPEKKWVREYINSLEMS
notes: CCL5, human CC chemokine
B11: CCL8 (ligand, human, UniProt P80075 24-99, looked up)
chain: QPDSVSIPITCCFNVINRKIPIQRLESYTRITNIQCPKEAVIFKTKRGKEVCADPKERWVRDSMKHLDQIFQNLKP
notes: CCL8, human CC chemokine
B12: CCL23 (ligand)
chain: RVTKDAETEFMMSKLPLENPVLLDRFHATSADCCISYTPRSIPCSLLESYFETNSECSKPGVIFLTKKGRRFCANPSDKQVQVCMRMLKLDTRIKTRKN
B13: CCL19 (ligand, human, UniProt Q99731 22-98, looked up)
chain: GTNDAEDCCLSVTQKPIPGYIVRNFHYLLIKDGCRVPAVVFTTLRGRQLCAPPDQPWVERIIQRLQRTSAKMKRRSS
notes: CCL19, human CC chemokine
B14: CCL26 (ligand, human, UniProt Q9Y258 24-94, looked up)
chain: TRGSDISKTCCFQYSHKPLPWTWVRSYEFTSNSCSQRAVIFTTKRGKKVCTHPRKKWVQKYISLLKTPKQL
notes: CCL26, human CC chemokine
B15: CCL22 (ligand, human, UniProt O00626 25-93, looked up)
chain: GPYGANMEDSVCCRDYVRYRLPLRVVKHFYWTSDSCPRPGVVLLTFRDKEICADPRVPWVKMILNKLSQ
notes: CCL22, human CC chemokine
B16: CCL13 (ligand)
chain: not shown
notes: CCL13, human CC chemokine
B17: CCL4 (ligand, human, UniProt P13236 24-92, looked up)
chain: APMGSDPPTACCFSYTARKLPRNFVVDYYETSSLCSQPAVVFQTKRSKQVCADPSESWVQEYVYDLELN
notes: CCL4, human CC chemokine
B18: CCL17 (ligand, human, UniProt Q92583 24-94, looked up)
chain: ARGTNVGRECCLEYFKGAIPLRKLKTWYQTSEDCSRDAIVFVTVQGRAICSDPNNKRVKNAVKYLQSLERS
notes: CCL17, human CC chemokine
B19: CCL21 (ligand, human, UniProt O00585 24-134, looked up)
chain: SDGGAQDCCLKYSQRKIPAKVVRSYRKQEPSLGCSIPAILFLPRKRSQAELCADPKELWVQQLMQHLDKTPSPQKPAQGCRKDRGASKTGKKGKGSKGCKRTERSQTPKGP
notes: CCL21, human CC chemokine
B20: CCL27 (ligand, human, UniProt Q9Y4X3 25-112, looked up)
chain: FLLPPSTACCTQLYRKPLSDKLLRKVIQVELQEADGDCHLQAFVLHLAQRSICIHPQNPSLSQWFEHQERKLHGTLPKLNFGMLRKMG
notes: CCL27, human CC chemokine
B21: EVA‐ACA1001, Avi-tagged and biotinylated (SPR construct) (natural protein)
chain: ENGEGTTQPDYDNSTDYYNYEDFKCTCPAPHLNNTNGTVMKPIGCYYTCNVTRCTAPDTYPCYNLTEHQAKNLTTSPTTLCAVGNCDHGICVPNGTKELCFKAPNLEE
modifications: biotin on the AVI tag (BirA ligase)
notes: EVA-ACA1001 (Evasin P991), class A3 evasin of Amblyomma cajennense; mass of the untagged protein 11,920 Da (calculated 11,921 Da with five disulfides); also called Evasin P991; full‐length EVA‐ACA1001; not shown: His6, N-terminal, cleaved; SUMO, N-terminal, cleaved

Each binder was assayed against B11 (assay: cell-based or functional assay). Settings: not given.
With B1 the “IC50 of EVA-ACA1001 for inhibition of CCL8-stimulated activation of CCR5 (cAMP assay); blocks CCL8 with CCR5” value was ~189 nM.

Biological target: B11
Assay: cell-based or functional assay
Settings: not given
Remark: another data set of the same source
For B1, the “IC50 of EVA-ACA1001 for inhibition of CCL8 (100 nM)-stimulated activation of CCR5 (inhibition of forskolin-induced cAMP, CAMYEL BRET biosensor, Flp-In-CHO cells); blocks CCL8 with CCR5” value was 188 nM and the “pIC50 of EVA-ACA1001 for inhibition of CCL8 (100 nM)-stimulated activation of CCR5 (inhibition of forskolin-induced cAMP, CAMYEL BRET biosensor, Flp-In-CHO cells); blocks CCL8 with CCR5” value was 6.51 -log(IC50, M).

These binders were tested against B7 (assay: cell-based or functional assay). Settings: not given.
B1 was tested, and the “IC50 of EVA-ACA1001 for inhibition of CCL3 (60 nM)-stimulated activation of CCR5 (inhibition of forskolin-induced cAMP, CAMYEL BRET biosensor, Flp-In-CHO cells); blocks CCL3 with CCR5” value was 94 nM and the “pIC50 of EVA-ACA1001 for inhibition of CCL3 (60 nM)-stimulated activation of CCR5 (inhibition of forskolin-induced cAMP, CAMYEL BRET biosensor, Flp-In-CHO cells); blocks CCL3 with CCR5” value was 7.02 -log(IC50, M).

The binders below were run against B17 (assay: cell-based or functional assay). Settings: not given.
B1 was tested, and the “IC50 of EVA-ACA1001 for inhibition of CCL4 (80 nM)-stimulated activation of CCR5 (inhibition of forskolin-induced cAMP, CAMYEL BRET biosensor, Flp-In-CHO cells); blocks CCL4 with CCR5” value was 84 nM and the “pIC50 of EVA-ACA1001 for inhibition of CCL4 (80 nM)-stimulated activation of CCR5 (inhibition of forskolin-induced cAMP, CAMYEL BRET biosensor, Flp-In-CHO cells); blocks CCL4 with CCR5” value was 7.07 -log(IC50, M).

What follows are binders tested against B1 (assay: crystal structure; EVA-ACA1001 and CCL16 mixed 1:1.2, complex purified on Superdex 75 in 10 mM HEPES pH 7.5, 150 mM NaCl; crystals from 0.1 M HEPES pH 7.0, 0.5% v/v Jeff ED-2001, 1.1 M sodium malonate; two complexes per asymmetric unit). Settings: both partners purified.
With B2 the “stoichiometry N” value was 1.

The binders below were run against B21 (assay: SPR; screen at a single chemokine concentration: biotinylated Avi-tagged evasin immobilised on a streptavidin-coated CAPture chip (80 response units); 500 nM chemokine flowed for 240 s at 30 uL/min, 600 s dissociation; 25°C; Biacore T100; 10 mM HEPES, 500 mM NaCl, 0.002% Tween 20, 3 mM EDTA, 1 mg/mL carboxymethyl dextran, pH 7.5). Settings: both partners purified.
B3: binds. B4: binds.

Each binder was assayed against B21 (assay: SPR; affinity determination: biotinylated Avi-tagged evasin immobilised on a streptavidin-coated CAPture chip; five two-fold increasing chemokine concentrations (31.25-500 nM), 240 s at 30 uL/min, 600 s dissociation; 1:1 binding model; 25°C; 10 mM HEPES, 500 mM NaCl, 0.002% Tween 20, 3 mM EDTA, 1 mg/mL carboxymethyl dextran, pH 7.5; three independent experiments (Table 1 caption: multiple-cycle kinetics)). Settings: both partners purified.
In the case of B5, the Kd is reported as 107 nM and the pKd is reported as 7.02 -log(Kd, M). In the case of B6, the Kd is reported as 0.38 nM and the pKd is reported as 9.49 -log(Kd, M). B7 was tested, and the Kd was 1.08 nM and the pKd was 8.99 -log(Kd, M). B8 was tested, and the Kd was 21.1 nM and the pKd was 7.71 -log(Kd, M). With B9 the Kd was 8.9 nM and the pKd was 8.22 -log(Kd, M). B10 was tested, and the Kd was 0.27 nM and the pKd was 9.55 -log(Kd, M). B11 was tested, and the Kd was 4.76 nM and the pKd was 8.34 -log(Kd, M). In the case of B12, the Kd is reported as 1.17 nM and the pKd is reported as 8.93 -log(Kd, M). In the case of B13, the Kd is reported as 1.31 nM and the pKd is reported as 8.9 -log(Kd, M). For B14, the Kd was 1.68 nM and the pKd was 8.77 -log(Kd, M). B15 was tested, and the Kd was 1.29 nM and the pKd was 8.9 -log(Kd, M). In the case of B16, the Kd is reported as 0.39 nM and the pKd is reported as 9.41 -log(Kd, M). B17 was tested, and the Kd was 1.18 nM and the pKd was 8.93 -log(Kd, M). With B18 the Kd was 1.01 nM and the pKd was 8.99 -log(Kd, M). For B19, the pKd was 8.19 -log(Kd, M). With B20 the Kd was 84.8 nM and the pKd was 7.07 -log(Kd, M). With B2 the Kd was 0.54 nM and the pKd was 9.34 -log(Kd, M).

The binders below were run against B19 in the same assay as above. Settings: both partners purified.
B21 gave a Kd of 6.5 nM.
